Results on two proteins are retold here after patent US20040191811A1, “Methods for measuring levels of uridine-diphosphate-N-acetylglucosamine and activity of inhibitors thereof” (priority 2002, published 2004).

What all share (format): biochemical, human
Holding throughout (settings): other: extracts from transfected SF9 insect cells, 60 minutes at 37° C.

Substrate in series [1]: O=C(CO)[C@@H](O)[C@H](O)[C@H](O)COP(=O)(O)O
Kind of series: Substrate Km determination for GFAT-alpha (Lineweaver-Burk plot). Here is the method:
(§1) FIG. 3 illustrates the effect of varying concentrations of the substrates glutamine and fructose 6-phosphate on the enzyme activity of GFAT-alpha and GFAT-beta. FIG. 3A is a graph illustrating incubation with 10 μl glutamine 200 mM+10 μl fructose 6-phosphate 3.125, 6.25, 12.5, 25, 50, 100, and 200 mM. FIG. 3B is a graph illustrating incubation with 10 μl fructose 6-phosphate 200 mM+10 μl glutamine 3.125, 6.25, 12.5, 25, 50, 100, and 200 mM. 10 μl of GFAT-alpha and 5 μl of GFAT-beta extracts from transfected SF9 insect cells are incubated with 1) 10 μl glutamine 200 mM+10 μl fructose 6-phosphate 3.125, 6.25, 12.5, 25, 50, 100, and 200 mM, and 2) 10 μl fructose 6-phosphate 200 mM+10 μl glutamine 3.125, 6.25, 12.5, 25, 50, 100, and 200 mM in an incubation media containing 10 μl PBS 10×, 10 μl EDTA 50 mM, 10 μl DTT 10 mM, and water to 100 μl. The plate is sealed with a Costar plate sealer and incubated for 60 minutes at 37° C. by floating on a water bath. Additional incubation mixture is kept on ice to add to standard and control samples. […] After a 20-minute incubation at 37° C., the OD is determined for each well at 585 nm.
(§2) FIG. 3C is a table illustrating the Km values of the substrates for the GFAT-alpha and GFAT-beta enzymes calculated from the data generated in FIGS. 3A and 3B. […]

Substrate in series [2]: NC(=O)CC[C@H](N)C(=O)O
Described as above. Here is the method: as §1, §2

Substrate in series [3]: O=C(CO)[C@@H](O)[C@H](O)[C@H](O)COP(=O)(O)O
Kind of series: Substrate Km determination for GFAT-beta (Lineweaver-Burk plot). Here is the method: as §1, §2

Substrate in series [4]: NC(=O)CC[C@H](N)C(=O)O
The description is as above. Here is the method:
as §1, §2

A word on the Km: it is the substrate concentration at which the rate is half of its maximum.

B1: GFAT-alpha (Homo sapiens) (protein)
chain: MCGIFAYLNYHVPRTRREILETLIKGLQRLEYRGYDSAGVGFDGGNDKDWEANACKIQLIKKKGKVKALDEEVHKQQDMDLDIEFDVHLGIAHTRWATHGEPSPVNSHPQRSDKNNEFIVIHNGIITNYKDLKKFLESKGYDFESETDTETIAKLVKYMYDNRESQDTSFTTLVERVIQQLEGAFALVFKSVHFPGQAVGTRRGSPLLIGVRSEHKLSTDHIPILYRTGKDKKGSCNLSRVDSTTCLFPVEEKAVEYYFASDASAVIEHTNRVIFLEDDDVAAVVDGRLSIHRIKRTAGDHPGRAVQTLQMELQQIMKGNFSSFMQKEIFEQPESVVNTMRGRVNFDDYTVNLGGLKDHIKEIQRCRRLILIACGTSYHAGVATRQVLEELTELPVMVELASDFLDRNTPVFRDDVCFFLSQSGETADTLMGLRYCKERGALTVGITNTVGSSISRETDCGVHINAGPEIGVASTKAYTSQFVSLVMFALMMCDDRISMQERRKEIMLGLKRLPDLIKEVLSMDDEIQKLATELYHQKSVLIMGRGYHYATCLEGALKIKEITYMHSEGILAGELKHGPLALVDKLMPVIMIIMRDHTYAKCQNALQQVVARQGRPVVICDKEDTETIKNTKRTIKVPHSVDCLQGILSVIPLQLLAFHLAVLRGYDVDFPRNLAKSVTVE
notes: made in house; host or cells: SF9 insect cells (sonicated, centrifuged cell extract, not purified)
As to B1, the Km in series [1] was determined as 1850 µM; in series [2] it was 1490 µM.

B2: GFAT-beta (Homo sapiens) (protein)
chain: MCGIFAYMNYRVPRTRKEIFETLIKGLQRLEYRGYDSAGVAIDGNNHEVKERHIQLVKKRGKVKALDEELYKQDSMDLKVEFETHFGIAHTRWATHGVPSAVNSHPQRSDKGNEFVVIHNGIITNYKDLRKFLESKGYEFESETDTETIAKLIKYVFDNRETEDITFSTLVERVIQQLEGAFALVFKSVHYPGEAVATRRGSPLLIGVRSKYKLSTEQIPILYRTCTLENVKNICKTRMKRLDSSACLHAVGDKAVEFFFASDASAIIEHTNRVIFLEDDDIAAVADGKLSIHRVKRSASDDPSRAIQTLQMELQQIMKGNFSAFMQKEIFEQPESVFNTMRGRVNFETNTVLLGGLKDHLKEIRRCRRLIVIGCGTSYHAAVATRQVLEELTELPVMVELASDFLDRNTPVFRDDVCFFISQSGETADTLLALRYCKDRGALTVGVTNTVGSSISRETDCGVHINAGPEIGVASTKAYTSQFISLVMFGLMMSEDRISLQNRRQEIIRGLRSLPELIKEVLSLEEKIHDLALELYTQRSLLVMGRGYNYATCLEGALKIKEITYMHSEGILAGELKHGPLALIDKQMPVIMVIMKDPCFAKCQNALQQVTARQGRPIILCSKDDTESSKFAYKTIELPHTVDCLQGILSVIPLQLLSFHLAVLRGYDVDFPRNLAKSVTVE
notes: as for B1
On to B2, for which the Km in series [3] was determined as 6800 µM; in series [4], 1990 µM.
